# From publication PMC8623585 (Vaccines, 2021)
# B1: Plant-produced IL6RmAb (anti-IL-6 receptor monoclonal antibody with the amino acid sequence of sarilumab) (antibody, V domains shown)
# VH: EVQLVESGGGLVQPGRSLRLSCAASRFTFDDYAMHWVRQAPGKGLEWVSGISWNSGRIGYADSVKGRFTISRDNAENSLFLQMNGLRAEDTALYYCAKGRDSFDIWGQGTMVTVSS
# VL: DIQMTQSPSSVSASVGDRVTITCRASQGISSWLAWYQQKPGKAPKLLIYGASSLESGVPSRFSGSGSGTDFTLTISSLQPEDFASYYCQQANSFPYTFGQGTKLEIK
# notes: heavy chain of sarilumab; light chain of sarilumab; Full IgG1 with kappa light chain, heterotetramer of ~150 kDa; made in a glycoengineered N. benthamiana line; also called pIL6RmAb; anti-IL6R mAb; copies: 2 + 2
# Key:
# Human IL-6 receptor [1] = molecular target: T1, Human IL-6 receptor (Homo sapiens, UniProt P08887); test: cell-based or functional assay
# T1 sequence (P08887 20-365): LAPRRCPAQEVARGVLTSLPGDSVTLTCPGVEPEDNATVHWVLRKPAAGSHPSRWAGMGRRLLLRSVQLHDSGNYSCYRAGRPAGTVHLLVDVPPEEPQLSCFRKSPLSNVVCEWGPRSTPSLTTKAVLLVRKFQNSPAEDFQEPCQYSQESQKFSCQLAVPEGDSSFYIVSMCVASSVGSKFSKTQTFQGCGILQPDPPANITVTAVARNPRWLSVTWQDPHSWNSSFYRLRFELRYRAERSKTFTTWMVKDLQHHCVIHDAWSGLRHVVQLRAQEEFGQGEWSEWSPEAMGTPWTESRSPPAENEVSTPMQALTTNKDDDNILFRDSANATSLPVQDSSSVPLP
# Human IL-6 receptor [2] = molecular target: T1, Human IL-6 receptor; test: ELISA; human IL-6R (2 µg/mL) immobilised on microtiter plates; serial dilutions of pIL6RmAb; detected with HRP-conjugated anti-human-gamma HC antibody; KD by non-linear regression, one-site binding model; settings: both partners purified
binder,measurement,setting,value
B1,IC50 of inhibition of IL-6 signaling in luciferase reporter cells (Promega IL-6 Bioassay) with 25 ng/mL (~1.19 nM) recombinant human IL-6; blocks IL-6 with IL-6R,Human IL-6 receptor [1],0.081 µg/mL
same,IC50 of inhibition of IL-6 signaling in luciferase reporter cells (Promega IL-6 Bioassay) with 25 ng/mL (~1.19 nM) recombinant human IL-6; blocks IL-6 with IL-6R (the same IC50 in molar units),Human IL-6 receptor [1],~0.54 nM
same,Kd,Human IL-6 receptor [2],0.083 nM
